Laboratory results as given in IntAct's records for PubMed 15009215.

B1: Emerin (Homo sapiens), P50402 (parent)
chain: MDNYADLSDTELTTLLRRYNIPHGPVVGSTRRLYEKKIFEYETQRRRLSPPSSSAASSYSFSDLNSTRGDADMYDLPKKEDALLYQSKGYNDDYYEESYFTTRTYGEPESAGPSRAVRQSVTSFPDADAFHHQVHDDDLLSSSEEECKDRERPMYGRDSAYQSITHYRPVSASRSSLDLSYYPTSSSTSFMSSSSSSSSWLTRRAIRPENRAPGAGLGQDRQVPLWGQLLLFLVFVIVLFFIYHFMQAEEGNPF

Variants of: B1
Conditions: with bclf1_human BCLAF1, Q9NYF8
Sequence of bclf1_human BCLAF1, Q9NYF8 (Q9NYF8 whole entry): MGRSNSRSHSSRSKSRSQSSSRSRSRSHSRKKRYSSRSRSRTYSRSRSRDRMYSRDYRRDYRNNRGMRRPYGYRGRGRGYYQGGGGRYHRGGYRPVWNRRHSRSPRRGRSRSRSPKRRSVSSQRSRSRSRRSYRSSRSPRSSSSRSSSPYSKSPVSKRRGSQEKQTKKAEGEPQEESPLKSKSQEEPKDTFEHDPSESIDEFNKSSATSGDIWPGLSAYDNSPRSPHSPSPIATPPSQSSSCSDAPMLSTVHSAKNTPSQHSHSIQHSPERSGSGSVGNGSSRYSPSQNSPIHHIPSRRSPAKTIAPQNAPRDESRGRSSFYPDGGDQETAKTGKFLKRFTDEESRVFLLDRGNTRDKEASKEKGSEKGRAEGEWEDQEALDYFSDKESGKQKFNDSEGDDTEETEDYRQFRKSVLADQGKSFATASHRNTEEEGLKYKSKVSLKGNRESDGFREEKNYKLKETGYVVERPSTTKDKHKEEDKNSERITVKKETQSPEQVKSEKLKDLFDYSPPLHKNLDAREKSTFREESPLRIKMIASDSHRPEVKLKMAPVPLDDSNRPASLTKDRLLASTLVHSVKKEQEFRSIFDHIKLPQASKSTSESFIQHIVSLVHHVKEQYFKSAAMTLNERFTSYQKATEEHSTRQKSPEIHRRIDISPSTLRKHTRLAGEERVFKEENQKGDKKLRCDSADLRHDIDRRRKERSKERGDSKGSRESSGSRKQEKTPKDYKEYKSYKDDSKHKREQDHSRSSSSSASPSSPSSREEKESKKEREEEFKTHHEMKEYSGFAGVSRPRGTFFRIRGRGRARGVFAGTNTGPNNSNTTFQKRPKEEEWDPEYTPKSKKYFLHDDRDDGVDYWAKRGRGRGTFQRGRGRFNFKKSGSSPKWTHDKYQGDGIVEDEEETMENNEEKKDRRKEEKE

effect of a mutation on the interaction	Variant
decreasing interaction	MDNYADLSDTELTTLLRRYNIPHGPVVGSTRRLYEKKIFEYETQAAALSPPSSSAASSYSFSDLNSTRGDADMYDLPKKEDALLYQSKGYNDDYYEESYFTTRTYGEPESAGPSRAVRQSVTSFPDADAFHHQVHDDDLLSSSEEECKDRERPMYGRDSAYQSITHYRPVSASRSSLDLSYYPTSSSTSFMSSSSSSSSWLTRRAIRPENRAPGAGLGQDRQVPLWGQLLLFLVFVIVLFFIYHFMQAEEGNPF [R45A;R46A;R47A]
decreasing interaction	MDNYADLSDTELTTLLRRYNIPHGPVVGSTRRLYEKKIFEYETQRRRLSPPSSSAASSYSFSDLNSTRGDADMYDLPKKEDALLYQSKGYNDDYYEESYFTTRTYGEPESAGPSRAVRQSVTSFPDADAFHHQVHDDDLLSSSEEECKDRERPMYGRDSAYQSITHYRPVSASRSSLDLSYYPTSSSTSFMSSSSSSSSWLTRRAIAAENRAPGAGLGQDRQVPLWGQLLLFLVFVIVLFFIYHFMQAEEGNPF [R207A;P208A]
decreasing interaction	MDNYADLSDTELTTLLRRYNIPHGPVVGSTRRLYEKKIFEYETQRRRLSPPSSSAASSYSFSDLNSTRGAAAMADLPKKEDALLYQSKGYNDDYYEESYFTTRTYGEPESAGPSRAVRQSVTSFPDADAFHHQVHDDDLLSSSEEECKDRERPMYGRDSAYQSITHYRPVSASRSSLDLSYYPTSSSTSFMSSSSSSSSWLTRRAIRPENRAPGAGLGQDRQVPLWGQLLLFLVFVIVLFFIYHFMQAEEGNPF [D70A;D72A;Y74A]
decreasing interaction	MDNYADLSDTELTTLLRRYNIPHGPVVGSTRRLYEKKIFEYETQRRRLSPPSSSAASSYSFSDLNSTRGDADMYDAPAKADAALYQSKGYNDDYYEESYFTTRTYGEPESAGPSRAVRQSVTSFPDADAFHHQVHDDDLLSSSEEECKDRERPMYGRDSAYQSITHYRPVSASRSSLDLSYYPTSSSTSFMSSSSSSSSWLTRRAIRPENRAPGAGLGQDRQVPLWGQLLLFLVFVIVLFFIYHFMQAEEGNPF [L76A;K78A;E80A;L83A]
decreasing interaction	MDNYADLSDTELTTLLRRYNIPHGPVVGSTRRLYEKKIFEYETQRRRLSPPSSSAASSYSFSDLNSTRGDADMYDLPKKEDALLYQSKGYNDDYYEESYFTTRTYGEPESAGPSRAVRQSVTSFPDADAFHHQVHDDDLLSSSEEECKDRERPMYGRDSAYQSITHYRPVSASRSSLDLSYYPTSSSTSFMASAAASSSWLTRRAIRPENRAPGAGLGQDRQVPLWGQLLLFLVFVIVLFFIYHFMQAEEGNPF [S192A;S194A;S195A;S196A]
decreasing interaction	MDNYADLSDTELTTLLRRYNIPHGPVVGSTRRLYEKKIFEYETQRRRLSPPSSSAASSYSFSDLNSTRGDADMYDLPKKEDALLYQSKGYNDDYYEESYFTTRTYGEPESAGPSRAVRQSVTSFPDADAFHHQVHDDDLLSSSEEECKDRERPMYGRDSAYQSITHYRPVSASRSSLDLSYYPTSSSTSFMSSSSSSSSWLTRRAAAPANRAPGAGLGQDRQVPLWGQLLLFLVFVIVLFFIYHFMQAEEGNPF [I206A;R207A;E209A]
decreasing interaction	MDNYADLSDTELTTLLRRYNIPHGPVVGSTRRLYEKKIFEYETQRRRLSPPSSSAASSYSFSDLNSTRGDADMYDLPKKEDALLYQSKGYNDDYYEESYFTTRTYGEPESAGPSRAVRQSVTSFPDADAFHHQVHDDDLLSSSEEECKDRERPMYGRDSAYQSITHYRPVSASRAALDLSYYPTSSSTSFMSSSSSSSSWLTRRAIRPENRAPGAGLGQDRQVPLWGQLLLFLVFVIVLFFIYHFMQAEEGNPF [S175A;S176A]
decreasing interaction	MDNYADLSDTELTTLLRRYNIPHGPVVGSTRRLYEKKIFEYETQRRRLSPPSSFAASSYSFSDLNSTRGDADMYDLPKKEDALLYQSKGYNDDYYEESYFTTRTYGEPESAGPSRAVRQSVTSFPDADAFHHQVHDDDLLSSSEEECKDRERPMYGRDSAYQSITHYRPVSASRSSLDLSYYPTSSSTSFMSSSSSSSSWLTRRAIRPENRAPGAGLGQDRQVPLWGQLLLFLVFVIVLFFIYHFMQAEEGNPF [S54F]
decreasing interaction	MDNYADLSDTELTTLLRRYNIPHGPVVGSTRRLYEKKIFEYETQRRRLSPPSSSAASSYSFSDLNSTRGDADMYDLPKKEDALLYQSKGYNDDYYEESYFTTRTYGEPESAGPSRAVRQSVTSFPDADAFHHQVHDDDLLSSSEEECKDRERPMYGRDSAYQSITHYRPVSASRSSLDLSYYPTSSSTSFMSSSSSAASWLTRRAIRPENRAPGAGLGQDRQVPLWGQLLLFLVFVIVLFFIYHFMQAEEGNPF [S197A;S198A]
decreasing interaction	MDNYADLSDTELTTLLRRYNIPHGPVVGSTRRLYEKKIFEYETQRRRLSPPSSSAASSYSFSDLNSTRGDADMYDLPKKEDALLYQSKGYNDDYYEESYFTTRTYGEPESAGPSRAVRQSVTSFPDADAFHHQVHDDDLLSSSEEECKDRERPMYGRDSAYQSITHYRPVSASRSSLDLSYYPTSSSTSFMSSSSSSSSWLTRRAIRPENRAPAAGAGQDRQVPLWGQLLLFLVFVIVLFFIYHFMQAEEGNPF [G214A;L217A]
